Reference: article PMC9233197, “Neuropeptide signalling shapes feeding and reproductive behaviours in male Caenorhabditis elegans” (Life Science Alliance, 2022)
No end group written: not given here.

Target: T1, NPR-22 (Caenorhabditis elegans, UniProt Q59E83)
T1 construct: host or cells: CHO-K1 cells (CHO/mtAEQ/Gα16) transiently transfected with NPR-22 cDNA in pcDNA3.1 TOPO
T1 sequence (Q59E83 1-434): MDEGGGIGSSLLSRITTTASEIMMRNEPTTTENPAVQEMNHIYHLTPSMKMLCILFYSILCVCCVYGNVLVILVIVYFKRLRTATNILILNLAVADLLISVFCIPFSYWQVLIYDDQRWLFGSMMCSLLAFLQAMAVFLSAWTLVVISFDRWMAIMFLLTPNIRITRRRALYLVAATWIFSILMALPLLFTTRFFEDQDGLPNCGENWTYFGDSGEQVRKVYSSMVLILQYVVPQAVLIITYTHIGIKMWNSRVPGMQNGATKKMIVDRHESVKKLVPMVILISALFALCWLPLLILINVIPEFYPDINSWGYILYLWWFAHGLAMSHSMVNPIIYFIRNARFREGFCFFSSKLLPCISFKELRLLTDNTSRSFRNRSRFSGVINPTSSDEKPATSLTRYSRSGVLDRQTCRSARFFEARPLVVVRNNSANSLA
Assay: In vitro GPCR activation assay (aequorin bioluminescence, CHO/mtAEQ/Gα16 cells transfected with NPR-22)
Type: cell-based
Settings: dose–response, n = 6–8 trials
Source text: Figure 1. Neuropeptide lury-1 and its receptor npr-22 are expressed in different cells in the two sexes of C. elegans. […] In males, there is additional expression in cells in the tail (white arrows). Dashed outlines indicate worm body and position of pharyngeal bulbs in the head. Scale bar = 10 μm. (B) Identification of lury-1–expressing male tail neurons using NeuroPAL ([Tekieli et al, 2021]; [Yemini et al, 2021]). The lury-1 reporter line used here is JN2443 (Plury-1::Venus, unc-122p::mCherry). […] DX1–DX3 are annotated in the image. Nuclear fluorescence in other neurons is in pseudocolour as in [Yemini et al (2021)]. Scale bar = 10 μm. […] The corresponding EC50 values (M) for each peptide are as indicated. Line represents non-linear regression fit of a variable slope line using three parameters. n = 6–8 trials. […] Expression in male copulatory apparatus is also observed. Dashed outlines indicate worm body and position of pharyngeal bulbs in the head. Scale bar = 10 μm. […]
Cell-based activation assays were performed as described ([Beets et al, 2012]). […] Cells (25,000 cells/well) were exposed to synthetic peptides in BSA medium, and aequorin bioluminescence was recorded for 30 s on a MicroBeta LumiJet luminometer (PerkinElmer) in quadruplicate. […] EC50 values were calculated from dose–response curves, constructed using a nonlinear regression analysis, with sigmoidal dose–response equation (Prism 9.0).

Row | Substance | activation of the receptor NPR-22 in vitro (in words)
1 | LURY-1-2: peptide encoded by the LURY-1 precursor (luqin RYamide) of C. elegans; synthetic peptide in the assay (AVLPRY; ends and bridges not checked; UniProt Q9XW71 38-43, looked up) | activate the receptor NPR-22 in vitro
2 | LURY-1-1: peptide encoded by the LURY-1 precursor (luqin RYamide) of C. elegans; synthetic peptide in the assay (PALLSRY; ends and bridges not checked; UniProt Q9XW71 29-35, looked up) | activate the receptor NPR-22 in vitro
